Reference: paper PMC4119988 (British Journal of Cancer, 2014)

Target: OTU domain-containing protein 1 (Homo sapiens (Human)., UniProt Q5VV17)
Test: far-Western, overlay or dot blot

OTU domain-containing protein 1, sequence (Q5VV17 whole entry, the tested form may be a part): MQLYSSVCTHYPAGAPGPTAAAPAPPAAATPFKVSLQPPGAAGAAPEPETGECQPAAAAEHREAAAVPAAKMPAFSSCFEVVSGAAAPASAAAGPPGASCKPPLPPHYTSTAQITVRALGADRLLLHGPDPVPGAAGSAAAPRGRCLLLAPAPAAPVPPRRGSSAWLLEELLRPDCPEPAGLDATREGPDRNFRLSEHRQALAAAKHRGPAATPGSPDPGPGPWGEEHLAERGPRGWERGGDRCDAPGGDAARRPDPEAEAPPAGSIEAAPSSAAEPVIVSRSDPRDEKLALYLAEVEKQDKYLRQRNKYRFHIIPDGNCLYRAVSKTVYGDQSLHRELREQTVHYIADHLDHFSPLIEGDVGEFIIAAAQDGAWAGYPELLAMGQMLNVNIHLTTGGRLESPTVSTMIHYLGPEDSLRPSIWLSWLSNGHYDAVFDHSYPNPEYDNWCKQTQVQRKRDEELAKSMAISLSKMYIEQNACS

B1: scFv-C1 (scFv, V domains shown)
VH: EVQLLESGGGLVQPGGSLGLSCVASGFTFSDRWMSWVRQAPGKGLEWVAKIKQDGSEKLYVDSVKGRFTIPRDNSKNSLYLQMDSLRAEDTAVYYCVRGAGWLLDHWGQGILVTVSS
VL: SYVLTQPPSVSVAPGKTARITCGGNNIGRKSVHWYQQKPGQAPVLVVYDDSDRPSGIPERFSGSNSGNTATLTISRVEAGDEADYYCQVWDSSSDHSNWVFGGGTQLTVL
binding result: binds
